Earlier results as cited in PMC4965143.
Where two headings read alike, the source gives them in different places.

How the values were obtained:
[1] = biological target: PGC-1α coactivator peptide (Homo sapiens) (UniProt Q9UBK2)
[2] = biological target: PGC-1α coactivator peptide (Homo sapiens) (UniProt Q9UBK2); remark: listed apart in the source

Chain of UniProt Q9UBK2 (Q9UBK2 whole entry): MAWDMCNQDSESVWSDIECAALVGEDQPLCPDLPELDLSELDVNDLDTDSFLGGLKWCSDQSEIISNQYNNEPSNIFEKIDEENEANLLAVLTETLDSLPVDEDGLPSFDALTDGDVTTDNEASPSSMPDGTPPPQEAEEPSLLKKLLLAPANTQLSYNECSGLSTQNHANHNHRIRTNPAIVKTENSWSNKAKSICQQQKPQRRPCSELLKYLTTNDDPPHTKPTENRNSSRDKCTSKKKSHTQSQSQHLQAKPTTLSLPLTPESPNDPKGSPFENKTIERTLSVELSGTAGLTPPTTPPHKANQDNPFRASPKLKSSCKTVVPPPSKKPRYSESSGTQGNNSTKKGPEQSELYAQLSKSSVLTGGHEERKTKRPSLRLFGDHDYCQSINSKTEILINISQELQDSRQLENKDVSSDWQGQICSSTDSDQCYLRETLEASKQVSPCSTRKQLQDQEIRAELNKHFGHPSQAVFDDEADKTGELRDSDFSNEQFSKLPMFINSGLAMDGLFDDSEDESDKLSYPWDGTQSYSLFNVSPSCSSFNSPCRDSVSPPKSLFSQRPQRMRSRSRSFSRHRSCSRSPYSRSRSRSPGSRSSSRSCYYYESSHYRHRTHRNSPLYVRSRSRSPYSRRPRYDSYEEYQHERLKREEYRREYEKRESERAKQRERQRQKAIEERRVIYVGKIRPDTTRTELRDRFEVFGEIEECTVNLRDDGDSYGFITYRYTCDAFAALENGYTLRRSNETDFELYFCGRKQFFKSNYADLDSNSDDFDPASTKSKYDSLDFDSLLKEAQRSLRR

Kd [1]: 8.5 µM
Kd [2]: 6 µM
Substance: SF-1 LBD (from UniProt Q13285)
